Among the data in paper PMC8583942, “An Engineered Thermostable Laccase with Great Ability to Decolorize and Detoxify Malachite Green” (International Journal of Molecular Sciences, 2021) are Km and kcat values, retold here.

By Km is commonly meant the substrate concentration at which the rate is half of its maximum. Usually kcat stands for the maximal rate divided by the concentration of active sites.

Substrate in this series: CCn1c(=NN=c2sc3cc(S(=O)(=O)O)ccc3n2CC)sc2cc(S(=O)(=O)O)ccc21
The series can be described thus: purified protein. In kind it is biochemical, Geothermobacter hydrogeniphilus. The following applies: 1 mM CuSO4, 20 mM acetate pH 4.0, 60 °C.

B1: Ghlac WT (Geothermobacter hydrogeniphilus) (protein)
chain: MKMARNGKISYLEPEWITGSLRAGFTTRNGGISRAPYNSLNLGLNTEDPRPNVEGNRSTLVRAFGLEVHQLLTVRQVHGNNILVVDEPNPDLSHFQQVECDAIISNQPGMMIGVLVADCYPVLLAAPAQGVVAAVHVGWRGAVAQIIQRTVDALQEQFGVCPEELLAAVGPGIGAHAYEVDRPVRDQFRKAGLPWAGVAEESRLGHWKLDLRETCRRQLLTAGVVRTHIDLAEECTCCHRELLFSHRRDNGRTGRQLGFILLT
notes: codon-optimized in pET-28a(+) NcoI/XhoI; E. coli BL21(DE3)
With B1, the Km turned out to be 1300 µM and the kcat worked out at 2.095 s⁻¹.
